Tested on: Escherichia coli TOP10
Assay: shrunken log2 fold change of peptide-encoding DNA abundance (4.5 h post-induction vs induction); higher = less antimicrobial activity (less host growth inhibition)
Conditions: time post-induction: 4.5 h; library: site-saturation at positions 5, 18, 19, 20
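Also: peptides expressed intracellularly from a pBAD plasmid library in pooled LB shake-flask culture, induced with 0.3% L-arabinose, DNA abundance read by NGS, three biological replicates, DESeq2 with apeglm shrinkage.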

Compared with RRIRTRPPRLPRPRPRPPWKPRP, RRIRTRPPRLPRPRPRPPWQPRP is higher in “shrunken log2 fold change” value: -0.107 for the first, 0.698 for the second.

Compared with RRIRTRPPRLPRPRPRPPWSPRP, RRIRTRPPRLPRPRPRPPYKPRP is lower in “shrunken log2 fold change” value: 0.194 for the first, -0.294 for the second.

RRIRTRPPRLPRPRPRPQAIPRP and RRIRTRPPRLPRPRPRPQCAPRP are within 0.2 log units of each other in “shrunken log2 fold change” value: 0.209 for the first, 0.151 for the second.

RRIRTRPPRLPRPRPRPQDWPRP and RRIRTRPPRLPRPRPRPQEFPRP are within 0.2 log units of each other in “shrunken log2 fold change” value: 0.209 for the first, 0.0555 for the second.

RRIRTRPPRLPRPRPRPQEHPRP and RRIRTRPPRLPRPRPRPQEQPRP are within 0.2 log units of each other in “shrunken log2 fold change” value: -0.0662 for the first, 0.021 for the second.

Going from RRIRTRPPRLPRPRPRPQGIPRP to RRIRTRPPRLPRPRPRPQIQPRP, the “shrunken log2 fold change” value falls from 0.0112 to -0.418.

RRIRTRPPRLPRPRPRPQMCPRP and RRIRTRPPRLPRPRPRPQNLPRP are within 0.2 log units of each other in “shrunken log2 fold change” value: 0.0024 for the first, -0.135 for the second.

Compared with RRIRTRPPRLPRPRPRPQQFPRP, RRIRTRPPRLPRPRPRPQQGPRP is lower in “shrunken log2 fold change” value: -0.0175 for the first, -0.238 for the second.

Compared with RRIRTRPPRLPRPRPRPQQTPRP, RRIRTRPPRLPRPRPRPQRQPRP is higher in “shrunken log2 fold change” value: 0.0814 for the first, 0.455 for the second.

RRIRTRPPRLPRPRPRPQSHPRP and RRIRTRPPRLPRPRPRPQTEPRP are within 0.2 log units of each other in “shrunken log2 fold change” value: -0.207 for the first, -0.0173 for the second.

Compared with RRIRTRPPRLPRPRPRPQTHPRP, RRIRTRPPRLPRPRPRPQVEPRP is higher in “shrunken log2 fold change” value: -0.322 for the first, -0.00619 for the second.

RRIRTRPPRLPRPRPRPQVLPRP and RRIRTRPPRLPRPRPRPQWDPRP are within 0.2 log units of each other in “shrunken log2 fold change” value: -0.0479 for the first, -0.0974 for the second.

First: RRIRTRPPRLPRPRPRPQWLPRP
Second: RRIRTRPPRLPRPRPRPQYPPRP
The “shrunken log2 fold change” value of the first is higher: -0.455 for the first, -0.923 for the second.

First: RRIRTRPPRLPRPRPRPQYTPRP
Second: RRIRTRPPRLPRPRPRPRASPRP
The “shrunken log2 fold change” value of the first is lower: -0.697 for the first, 0.367 for the second.

Compared with RRIRTRPPRLPRPRPRPRCPPRP, RRIRTRPPRLPRPRPRPRDGPRP is higher in “shrunken log2 fold change” value: 0.0716 for the first, 0.456 for the second.

RRIRTRPPRLPRPRPRPRDRPRP and RRIRTRPPRLPRPRPRPRENPRP are within 0.2 log units of each other in “shrunken log2 fold change” value: 0.19 for the first, 0.277 for the second.

First: RRIRTRPPRLPRPRPRPRHAPRP
Second: RRIRTRPPRLPRPRPRPRHKPRP
The “shrunken log2 fold change” value of the first is higher: 0.329 for the first, 0.123 for the second.

RRIRTRPPRLPRPRPRPRHQPRP and RRIRTRPPRLPRPRPRPRILPRP are within 0.2 log units of each other in “shrunken log2 fold change” value: -0.154 for the first, -0.0615 for the second.

First: RRIRTRPPRLPRPRPRPRKFPRP
Second: RRIRTRPPRLPRPRPRPRPKPRP
The “shrunken log2 fold change” value of the first is lower: 0.0711 for the first, 0.303 for the second.

RRIRTRPPRLPRPRPRPRQPPRP and RRIRTRPPRLPRPRPRPRRQPRP are within 0.2 log units of each other in “shrunken log2 fold change” value: 0.135 for the first, -0.0389 for the second.

Compared with RRIRTRPPRLPRPRPRPRRSPRP, RRIRTRPPRLPRPRPRPRSKPRP is lower in “shrunken log2 fold change” value: 0.318 for the first, -0.101 for the second.

First: RRIRTRPPRLPRPRPRPRVTPRP
Second: RRIRTRPPRLPRPRPRPRYFPRP
The “shrunken log2 fold change” value of the first is higher: -0.163 for the first, -0.429 for the second.

Going from RRIRTRPPRLPRPRPRPRYIPRP to RRIRTRPPRLPRPRPRPSAPPRP, the “shrunken log2 fold change” value rises from -0.368 to 0.269.

RRIRTRPPRLPRPRPRPSCLPRP and RRIRTRPPRLPRPRPRPSDFPRP are within 0.2 log units of each other in “shrunken log2 fold change” value: -0.624 for the first, -0.704 for the second.

First: RRIRTRPPRLPRPRPRPSDGPRP
Second: RRIRTRPPRLPRPRPRPSFIPRP
The “shrunken log2 fold change” value of the first is higher: 0.0381 for the first, -0.761 for the second.

First: RRIRTRPPRLPRPRPRPSGKPRP
Second: RRIRTRPPRLPRPRPRPSHHPRP
The “shrunken log2 fold change” value of the first is higher: -0.0608 for the first, -0.646 for the second.

Going from RRIRTRPPRLPRPRPRPSHIPRP to RRIRTRPPRLPRPRPRPSKWPRP, the “shrunken log2 fold change” value rises from -0.274 to -0.0672.

First: RRIRTRPPRLPRPRPRPSLAPRP
Second: RRIRTRPPRLPRPRPRPSLTPRP
The “shrunken log2 fold change” value of the first is higher: 0.105 for the first, -0.452 for the second.

RRIRTRPPRLPRPRPRPSMFPRP and RRIRTRPPRLPRPRPRPSMIPRP are within 0.2 log units of each other in “shrunken log2 fold change” value: -0.46 for the first, -0.527 for the second.

First: RRIRTRPPRLPRPRPRPSMWPRP
Second: RRIRTRPPRLPRPRPRPSNVPRP
The “shrunken log2 fold change” value of the first is higher: 0.103 for the first, -0.337 for the second.

First: RRIRTRPPRLPRPRPRPSPGPRP
Second: RRIRTRPPRLPRPRPRPSQLPRP
The “shrunken log2 fold change” value of the first is higher: 0.103 for the first, -0.453 for the second.

RRIRTRPPRLPRPRPRPSSFPRP and RRIRTRPPRLPRPRPRPSTCPRP are within 0.2 log units of each other in “shrunken log2 fold change” value: -0.284 for the first, -0.175 for the second.

Going from RRIRTRPPRLPRPRPRPSTGPRP to RRIRTRPPRLPRPRPRPSTLPRP, the “shrunken log2 fold change” value falls from -0.285 to -0.853.

RRIRTRPPRLPRPRPRPSTRPRP and RRIRTRPPRLPRPRPRPSVIPRP are within 0.2 log units of each other in “shrunken log2 fold change” value: -0.296 for the first, -0.268 for the second.

RRIRTRPPRLPRPRPRPSVQPRP and RRIRTRPPRLPRPRPRPSYAPRP are within 0.2 log units of each other in “shrunken log2 fold change” value: -0.0749 for the first, -0.274 for the second.

Going from RRIRTRPPRLPRPRPRPSYFPRP to RRIRTRPPRLPRPRPRPTANPRP, the “shrunken log2 fold change” value rises from -0.85 to 0.0721.

First: RRIRTRPPRLPRPRPRPTAWPRP
Second: RRIRTRPPRLPRPRPRPTDFPRP
The “shrunken log2 fold change” value of the first is higher: 0.48 for the first, -0.405 for the second.

RRIRTRPPRLPRPRPRPTFHPRP and RRIRTRPPRLPRPRPRPTFMPRP are within 0.2 log units of each other in “shrunken log2 fold change” value: -0.174 for the first, -0.191 for the second.

RRIRTRPPRLPRPRPRPTKPPRP and RRIRTRPPRLPRPRPRPTLGPRP are within 0.2 log units of each other in “shrunken log2 fold change” value: 0.0402 for the first, 0.0554 for the second.

RRIRTRPPRLPRPRPRPTLLPRP and RRIRTRPPRLPRPRPRPTLVPRP are within 0.2 log units of each other in “shrunken log2 fold change” value: 0.0818 for the first, 0.0196 for the second.

First: RRIRTRPPRLPRPRPRPTMDPRP
Second: RRIRTRPPRLPRPRPRPTPHPRP
The “shrunken log2 fold change” value of the first is lower: -0.436 for the first, 0.283 for the second.

RRIRTRPPRLPRPRPRPTRCPRP and RRIRTRPPRLPRPRPRPTRIPRP are within 0.2 log units of each other in “shrunken log2 fold change” value: -0.104 for the first, -0.204 for the second.

RRIRTRPPRLPRPRPRPTRLPRP and RRIRTRPPRLPRPRPRPTRNPRP are within 0.2 log units of each other in “shrunken log2 fold change” value: 0.126 for the first, -0.0423 for the second.

Compared with RRIRTRPPRLPRPRPRPTTTPRP, RRIRTRPPRLPRPRPRPTVEPRP is lower in “shrunken log2 fold change” value: 0.168 for the first, -0.152 for the second.

RRIRTRPPRLPRPRPRPTYDPRP and RRIRTRPPRLPRPRPRPTYFPRP are within 0.2 log units of each other in “shrunken log2 fold change” value: -0.311 for the first, -0.313 for the second.

First: RRIRTRPPRLPRPRPRPVAVPRP
Second: RRIRTRPPRLPRPRPRPVCIPRP
The “shrunken log2 fold change” value of the first is higher: 0.0298 for the first, -0.195 for the second.

RRIRTRPPRLPRPRPRPVCSPRP and RRIRTRPPRLPRPRPRPVDIPRP are within 0.2 log units of each other in “shrunken log2 fold change” value: -0.247 for the first, -0.282 for the second.

First: RRIRTRPPRLPRPRPRPVDPPRP
Second: RRIRTRPPRLPRPRPRPVFIPRP
The “shrunken log2 fold change” value of the first is higher: -0.175 for the first, -0.475 for the second.

RRIRTRPPRLPRPRPRPVFNPRP and RRIRTRPPRLPRPRPRPVFRPRP are within 0.2 log units of each other in “shrunken log2 fold change” value: -0.65 for the first, -0.516 for the second.

RRIRTRPPRLPRPRPRPVFYPRP and RRIRTRPPRLPRPRPRPVGFPRP are within 0.2 log units of each other in “shrunken log2 fold change” value: -0.25 for the first, -0.225 for the second.

RRIRTRPPRLPRPRPRPVGPPRP and RRIRTRPPRLPRPRPRPVIDPRP are within 0.2 log units of each other in “shrunken log2 fold change” value: -0.006 for the first, -0.0797 for the second.

Going from RRIRTRPPRLPRPRPRPVISPRP to RRIRTRPPRLPRPRPRPVIYPRP, the “shrunken log2 fold change” value rises from -0.21 to 0.721.

Going from RRIRTRPPRLPRPRPRPVKNPRP to RRIRTRPPRLPRPRPRPVLPPRP, the “shrunken log2 fold change” value rises from -0.284 to 0.0511.

RRIRTRPPRLPRPRPRPVMQPRP and RRIRTRPPRLPRPRPRPVNDPRP are within 0.2 log units of each other in “shrunken log2 fold change” value: -0.0482 for the first, 0.0249 for the second.

In the case of RRIRTRPPRLPRPRPRPVNYPRP, the “shrunken log2 fold change” value was 0.0177.

From the supplement of paper PMC9112550, “Optimization of the antimicrobial peptide Bac7 by deep mutational scanning” (BMC Biology, 2022)
